Results taken from the Immune Epitope Database (IEDB).

Key:
HLA-A*69:01 = experiment: IEDB peptide-MHC binding, purified MHC/direct/fluorescence; filed as Kd, often an IC50 or EC50 that approximates it; ≥ and ≤ were set here for values at or beyond the usual limits of such assays
HLA-A*31:01 = experiment: as above
HLA-B*15:01 [1] = experiment: as above
HLA-B*08:01 = experiment: as above
HLA-A*26:01 [2] = experiment: as above
HLA-B*58:01 = experiment: as above
HLA-A*03:01 = experiment: as above
HLA-A*01:01 [3] = experiment: as above
HLA-A*02:01 = experiment: as above
HLA-B*27:05 = experiment: as above
HLA-A*11:01 = experiment: as above
HLA-B*07:02 = experiment: as above
HLA-B*40:01 [4] = experiment: as above
HLA-B*15:17 = experiment: IEDB peptide-MHC binding, purified MHC/competitive/fluorescence; filed as Kd, often an IC50 or EC50 that approximates it; ≥ and ≤ were set here for values at or beyond the usual limits of such assays; settings: source organism: Comamonas sediminis
HLA-A*24:02 = experiment: IEDB peptide-MHC binding, purified MHC/competitive/radioactivity; filed as Kd, often an IC50 or EC50 that approximates it; ≥ and ≤ were set here for values at or beyond the usual limits of such assays
HLA-A*26:01 [5] = experiment: as above
HLA-A*30:02 = experiment: as above
HLA-A*01:01 [6] = experiment: as above
HLA-A*29:02 = experiment: as above
HLA-A*23:01 = experiment: as above
HLA-B*40:01 [7] = experiment: as above
HLA-B*44:03 = experiment: as above; settings: source organism: Dengue virus 1 Brazil/97-11/1997
HLA-A*32:01 = experiment: as above; settings: source organism: Mammarenavirus guanaritoense
HLA-A*30:01 = experiment: as above; settings: source organism: Mammarenavirus guanaritoense
HLA-B*44:02 = experiment: IEDB peptide-MHC binding, purified MHC/direct/fluorescence; filed as Kd, often an IC50 or EC50 that approximates it; ≥ and ≤ were set here for values at or beyond the usual limits of such assays
HLA-B*18:01 = experiment: as above; settings: source organism: Dengue virus
HLA-A*24:03 = experiment: as above; settings: source organism: Salmonella enterica
HLA-B*15:01 [8] = experiment: IEDB peptide-MHC binding, purified MHC/competitive/fluorescence; filed as Kd, often an IC50 or EC50 that approximates it; ≥ and ≤ were set here for values at or beyond the usual limits of such assays; settings: source organism: Bacillus anthracis str. A0488
[9] = source organism: Comamonas sediminis
[10] = source organism: SARS coronavirus Tor2
[11] = source organism: Dengue virus 1 Brazil/97-11/1997
[12] = source organism: Dengue virus 2 Jamaica/1409/1983
[13] = source organism: Mammarenavirus guanaritoense
[14] = source organism: Salmonella enterica
[15] = source organism: Lassa virus Josiah
[16] = source organism: Mammarenavirus lassaense

For KSLGIDQIW, the Kd (HLA-A*69:01; [9]) was ≥ 20000 nM, the Kd (HLA-A*31:01; [9]) was 4660 nM and the Kd (HLA-B*15:01 [1]; [9]) was 1770 nM. The Kd (HLA-B*08:01; [9]) was ≥ 20000 nM, the Kd (HLA-A*26:01 [2]; [9]) was ≥ 20000 nM and the Kd (HLA-B*58:01; [9]) was 8.29 nM. The Kd (HLA-A*03:01; [9]) was ≥ 20000 nM, the Kd (HLA-A*01:01 [3]; [9]) was ≥ 20000 nM and the Kd (HLA-A*02:01; [9]) was ≥ 20000 nM. For the same sequence, the Kd (HLA-B*27:05; [9]) was ≥ 20000 nM, the Kd (HLA-A*11:01; [9]) was ≥ 20000 nM and the Kd (HLA-B*07:02; [9]) was ≥ 20000 nM. The Kd (HLA-B*40:01 [4]; [9]) was ≥ 20000 nM and the Kd (HLA-B*15:17) was 1.35 nM.

In the case of TSTGNYNYKY, the Kd (HLA-A*24:02; [10]) is reported as ≥ 70300 nM, the Kd (HLA-A*26:01 [5]; [10]) is reported as 1260 nM and the Kd (HLA-A*30:02; [10]) is reported as 42.3 nM. For the same sequence, the Kd (HLA-A*01:01 [6]; [10]) was 96.5 nM, the Kd (HLA-A*29:02; [10]) was 294 nM and the Kd (HLA-A*23:01; [10]) was ≥ 70000 nM.

Sequence HEWCCRSCTL has a Kd (HLA-B*40:01 [7]; [11]) of 3.99 nM.

GEVDSFSLGI showed a Kd (HLA-B*44:03) of 19.4 nM and a Kd (HLA-B*40:01 [7]; [11]) of 56.7 nM.

For TEHGTTATI, the Kd (HLA-B*40:01 [7]; source organism: Dengue virus 1 Nauru/West Pac/1974) was 57.1 nM.

With YYPSARIVY the Kd (HLA-A*24:02; [10]) was ≥ 105000 nM, the Kd (HLA-A*26:01 [5]; [10]) was 1370 nM and the Kd (HLA-A*30:02; [10]) was ≥ 78900 nM. For the same sequence, the Kd (HLA-A*01:01 [6]; [10]) was ≥ 45500 nM, the Kd (HLA-A*29:02; [10]) was ≥ 88200 nM and the Kd (HLA-A*23:01; [10]) was ≥ 84500 nM.

VFNNYMPYVF was tested, and the Kd (HLA-A*24:02; [10]) was 11.2 nM, the Kd (HLA-A*26:01 [5]; [10]) was ≥ 21600 nM and the Kd (HLA-A*30:02; [10]) was 7110 nM. The Kd (HLA-A*01:01 [6]; [10]) was ≥ 20600 nM, the Kd (HLA-A*29:02; [10]) was 9.22 nM and the Kd (HLA-A*23:01; [10]) was 8.32 nM.

In the case of KTSVDCNMY, the Kd (HLA-A*24:02; [10]) is reported as ≥ 77600 nM, the Kd (HLA-A*26:01 [5]; [10]) is reported as ≥ 81500 nM and the Kd (HLA-A*30:02; [10]) is reported as 2.66 nM. For the same sequence, the Kd (HLA-A*01:01 [6]; [10]) was 98.6 nM, the Kd (HLA-A*29:02; [10]) was 2720 nM and the Kd (HLA-A*23:01; [10]) was ≥ 77800 nM.

TEWCCRSCTL was tested, and the Kd (HLA-B*40:01 [7]; [12]) was 9.95 nM.

In the case of RYYDGNIYDL, the Kd (HLA-A*24:02; source organism: Variola virus) is reported as 87.9 nM, the Kd (HLA-A*26:01 [5]; source organism: Variola virus) is reported as ≥ 69700 nM and the Kd (HLA-A*30:02; source organism: Variola virus) is reported as 15.2 nM. The Kd (HLA-A*01:01 [6]; source organism: Variola virus) was 2610 nM, the Kd (HLA-A*29:02; source organism: Variola virus) was ≥ 61800 nM and the Kd (HLA-A*23:01; source organism: Variola virus) was 13.5 nM.

With FYSEESPTEY the Kd (HLA-A*32:01) was ≥ 69900 nM, the Kd (HLA-A*26:01 [5]; [13]) was 7360 nM and the Kd (HLA-A*30:02; [13]) was ≥ 27000 nM. For the same sequence, the Kd (HLA-A*01:01 [6]; [13]) was 192 nM, the Kd (HLA-A*29:02; [13]) was 80.1 nM and the Kd (HLA-A*30:01) was ≥ 48700 nM.

AELTGYGTV was tested, and the Kd (HLA-B*44:02; source organism: Dengue virus) was ≥ 20000 nM and the Kd (HLA-B*18:01) was 472 nM.

For WTDLYTSMS, the Kd (HLA-A*69:01; [14]) was ≥ 20000 nM, the Kd (HLA-A*31:01; [14]) was ≥ 20000 nM and the Kd (HLA-B*44:02; [14]) was ≥ 20000 nM. The Kd (HLA-B*15:01 [1]; [14]) was ≥ 20000 nM, the Kd (HLA-A*24:03) was ≥ 20000 nM and the Kd (HLA-B*08:01; [14]) was ≥ 20000 nM. For the same sequence, the Kd (HLA-A*26:01 [2]; [14]) was ≥ 20000 nM, the Kd (HLA-B*58:01; [14]) was ≥ 20000 nM and the Kd (HLA-A*03:01; [14]) was ≥ 20000 nM. For the same sequence, the Kd (HLA-A*01:01 [3]; source organism: Escherichia coli) was 81.7 nM, the Kd (HLA-A*02:01; [14]) was ≥ 20000 nM and the Kd (HLA-B*27:05; [14]) was ≥ 20000 nM. The Kd (HLA-A*11:01; [14]) was ≥ 20000 nM, the Kd (HLA-B*07:02; [14]) was ≥ 20000 nM and the Kd (HLA-B*40:01 [4]; [14]) was ≥ 20000 nM.

KEEESEGAI showed a Kd (HLA-B*40:01 [7]; source organism: Dengue virus 3 Martinique/1243/1999) of 46.4 nM.

SCDFNGGKI was tested, and the Kd (HLA-A*24:02; [15]) was ≥ 77500 nM, the Kd (HLA-A*26:01 [5]; [15]) was ≥ 77900 nM and the Kd (HLA-A*30:02; [15]) was ≥ 76900 nM. The Kd (HLA-A*01:01 [6]; [15]) was ≥ 23200 nM, the Kd (HLA-A*29:02; [15]) was ≥ 78900 nM and the Kd (HLA-A*23:01; [15]) was ≥ 77700 nM.

In the case of TEIQMSSGNL, the Kd (HLA-B*40:01 [7]; [12]) is reported as 7.03 nM.

LFTKFFYLL was tested, and the Kd (HLA-A*24:02; [10]) was 110 nM, the Kd (HLA-A*26:01 [5]; [10]) was ≥ 38100 nM and the Kd (HLA-A*30:02; [10]) was ≥ 83300 nM. For the same sequence, the Kd (HLA-A*01:01 [6]; [10]) was ≥ 78100 nM, the Kd (HLA-A*29:02; [10]) was 6960 nM and the Kd (HLA-A*23:01; [10]) was 154 nM.

For AEVRPVVSY, the Kd (HLA-B*15:01 [8]) was 73.5 nM.

Sequence IENTTANISL has a Kd (HLA-B*40:01 [7]; [11]) of 3.15 nM.

With WEGGHDLTV the Kd (HLA-B*40:01 [7]; source organism: Dengue virus 4 Philippines/H241/1956) was 1850 nM.

With HDLMMGYAWI the Kd (HLA-A*24:02; [16]) was ≥ 40100 nM, the Kd (HLA-A*26:01 [5]; [16]) was ≥ 69700 nM and the Kd (HLA-A*30:02; [16]) was 19200 nM. The Kd (HLA-A*01:01 [6]; [16]) was ≥ 51000 nM, the Kd (HLA-A*29:02; [16]) was ≥ 63900 nM and the Kd (HLA-A*23:01; [16]) was 8220 nM.
